Assay results reported in patent US20180362645A1.

Molecular target: human pituitary adenylate cyclase-activating polypeptide type I receptor (human) (UniProt P41586)
Experiment: cell-based or functional assay

Chain of human pituitary adenylate cyclase-activating polypeptide type I receptor (human) (P41586 21-468): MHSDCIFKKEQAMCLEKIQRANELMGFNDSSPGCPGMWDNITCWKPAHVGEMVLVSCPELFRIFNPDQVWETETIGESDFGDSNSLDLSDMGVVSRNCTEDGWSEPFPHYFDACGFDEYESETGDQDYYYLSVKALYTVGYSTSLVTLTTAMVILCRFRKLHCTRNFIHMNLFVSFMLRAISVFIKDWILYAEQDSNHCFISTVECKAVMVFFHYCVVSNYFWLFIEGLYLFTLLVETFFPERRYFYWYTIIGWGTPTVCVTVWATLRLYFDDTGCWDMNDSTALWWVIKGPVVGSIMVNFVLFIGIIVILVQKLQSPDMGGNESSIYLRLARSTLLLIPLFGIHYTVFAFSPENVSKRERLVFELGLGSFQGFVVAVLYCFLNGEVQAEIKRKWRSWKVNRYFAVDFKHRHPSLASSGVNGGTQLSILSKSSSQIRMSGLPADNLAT

HSDAVFTDNYTRLRKQMAVKKYLNSILN (ligand, UniProt P01282 125-152, looked up) [VIP]
PAC1 EC50 (agonist activity): 2.3 nM
